Measured values from US20050244864A1, “Development and use of fluorescent probes of unbound analytes” (priority 2004, published 2005).

What was measured:
Assay type in all cases: binding
[1] = Probe fluorescence ratio response to palmitate:BSA complex, relative to ADIFAB2 (ΔR/ΔRAD2); conditions: fluorescence response (R-Ro) relative to ADIFAB2; palmitate
Summary of the method: (§1)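 Mutant probes were screened against fatty acid:BSA complexes made by adding fatty acid sodium salts at pH 11 to BSA in HEPES, titrated until ADIFAB2 gave ΔR ≈0.4 ([FFAu] 100–1000 nM). Wells held 6 μM BSA; excitation 375 nm, emission 550/457 nm, background-subtracted.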

[2] = Probe fluorescence ratio response to oleate:BSA complex, relative to ADIFAB2 (ΔR/ΔRAD2); conditions: fluorescence response (R-Ro) relative to ADIFAB2; oleate
Summary of the method: as §1

[3] = Probe fluorescence ratio response to linoleate:BSA complex, relative to ADIFAB2 (ΔR/ΔRAD2); conditions: fluorescence response (R-Ro) relative to ADIFAB2; linoleate
Summary of the method: as §1

[4] = Probe fluorescence ratio response to linolenate:BSA complex, relative to ADIFAB2 (ΔR/ΔRAD2); conditions: fluorescence response (R-Ro) relative to ADIFAB2; linolenate
Summary of the method: as §1

[5] = Probe fluorescence ratio response to arachidonate:BSA complex, relative to ADIFAB2 (ΔR/ΔRAD2); conditions: fluorescence response (R-Ro) relative to ADIFAB2; arachidonate
Summary of the method: as §1

[6] = Probe fluorescence ratio response to palmitoleate:BSA complex, relative to ADIFAB2 (ΔR/ΔRAD2); conditions: fluorescence response (R-Ro) relative to ADIFAB2
[7] = Probe fluorescence ratio response to stearate:BSA complex, relative to ADIFAB2 (ΔR/ΔRAD2); conditions: fluorescence response (R-Ro) relative to ADIFAB2

Molecule | ΔR/ΔRAD2 PA [1] | ΔR/ΔRAD2 OA [2] | ΔR/ΔRAD2 LA [3] | ΔR/ΔRAD2 LNA [4] | ΔR/ΔRAD2 AA [5] | ΔR/ΔRAD2 POA [6] | ΔR/ΔRAD2 SA [7]
L1P16 G10: acrylodan-labeled rI-FABP mutein: Y14 W, L38 wt, L72 M, Y117 A (protein, UniProt P02693 2-132, looked up, variant Y14W L72M Y117A, acrylodan label, acrylodan-labeled rI-FABP mutein: Y14 W, L38 wt, L72 M, Y117 A) Fatty acid-binding protein, …: AFDGTWKVDRNENWEKFMEKMGINVVKRKLGAHDNLKLTITQEGNKFTVKESSNFRNIDVVFELGVDFAYSMADGTELTGTWTMEGNKLVGKFKRVDNGKELIAVREISGNELIQTATYEGVEAKRIFKKE | 0.8 | 0.7 | 1.1 | 1.3 | 0.9 | – | –
L1P1 C3: acrylodan-labeled rI-FABP mutein: Y14 M, L38 wt, L72 W, Y117 wt (protein, UniProt P02693 2-132, looked up, variant Y14M L72W, acrylodan label) Fatty acid-binding protein, …: AFDGTWKVDRNENMEKFMEKMGINVVKRKLGAHDNLKLTITQEGNKFTVKESSNFRNIDVVFELGVDFAYSWADGTELTGTWTMEGNKLVGKFKRVDNGKELIAVREISGNELIQTYTYEGVEAKRIFKKE | −0.4 | −1.3 | −1.1 | −1.0 | −0.9 | – | –
L1P8 D4: acrylodan-labeled rI-FABP mutein: Y14 M, L38 wt, L72 M, Y117 A (protein, UniProt P02693 2-132, looked up, variant Y14M L72M Y117A, acrylodan label, acrylodan-labeled rI-FABP mutein: Y14 M, L38 wt, L72 M, Y117 A) Fatty acid-binding protein, …: AFDGTWKVDRNENMEKFMEKMGINVVKRKLGAHDNLKLTITQEGNKFTVKESSNFRNIDVVFELGVDFAYSMADGTELTGTWTMEGNKLVGKFKRVDNGKELIAVREISGNELIQTATYEGVEAKRIFKKE | 0.9 | 1.1 | 2.0 | 2.0 | 1.6 | – | –
L2P16A3: acrylodan-labeled rI-FABP-L72A mutein: M18 I, G31 L, F55 WT, A73 G (protein, UniProt P02693 2-132, looked up, variant M18I G31L L72A A73G, acrylodan label, acrylodan-labeled rI-FABP-L72A mutein: M18 I, G31 L, F55 WT, A73 G) Fatty acid-binding protein, …: AFDGTWKVDRNENYEKFIEKMGINVVKRKLLAHDNLKLTITQEGNKFTVKESSNFRNIDVVFELGVDFAYSAGDGTELTGTWTMEGNKLVGKFKRVDNGKELIAVREISGNELIQTYTYEGVEAKRIFKKE | 1.1 | 0.6 | 1.1 | 1.5 | 1.0 | 1.4 | 0.3
L2P9E12: acrylodan-labeled rI-FABP-L72A mutein: M18 L, G31 WT, F55 L, A73 I (protein, UniProt P02693 2-132, looked up, variant M18L F55L L72A A73I, acrylodan label, acrylodan-labeled rI-FABP-L72A mutein: M18 L, G31 WT, F55 L, A73 I) Fatty acid-binding protein, …: AFDGTWKVDRNENYEKFLEKMGINVVKRKLGAHDNLKLTITQEGNKFTVKESSNLRNIDVVFELGVDFAYSAIDGTELTGTWTMEGNKLVGKFKRVDNGKELIAVREISGNELIQTYTYEGVEAKRIFKKE | 1.1 | 0.6 | 0.7 | 0.9 | 0.6 | 0.8 | 0.4
L2P22H10: acrylodan-labeled rI-FABP-L72A mutein: M18 I, G31 WT, F55 G, A73 M (protein, UniProt P02693 2-132, looked up, variant M18I F55G L72A A73M, acrylodan label, acrylodan-labeled rI-FABP-L72A mutein: M18 I, G31 WT, F55 G, A73 M) Fatty acid-binding protein, …: AFDGTWKVDRNENYEKFIEKMGINVVKRKLGAHDNLKLTITQEGNKFTVKESSNGRNIDVVFELGVDFAYSAMDGTELTGTWTMEGNKLVGKFKRVDNGKELIAVREISGNELIQTYTYEGVEAKRIFKKE | 1.1 | 0.6 | 1.1 | 1.3 | 0.9 | 1.2 | 0.4
L1P5 A10: acrylodan-labeled rI-FABP mutein: Y14 wt, L38 wt, L72 wt, Y117 A (protein, UniProt P02693 2-132, looked up, variant Y117A, acrylodan label, acrylodan-labeled rI-FABP mutein: Y14 wt, L38 wt, L72 wt, Y117 A) Fatty acid-binding protein, …: AFDGTWKVDRNENYEKFMEKMGINVVKRKLGAHDNLKLTITQEGNKFTVKESSNFRNIDVVFELGVDFAYSLADGTELTGTWTMEGNKLVGKFKRVDNGKELIAVREISGNELIQTATYEGVEAKRIFKKE | 0.4 | 1.1 | 1.2 | 0.7 | 1.5 | – | –
L2P8B8: acrylodan-labeled rI-FABP-L72A mutein: M18 WT, G31 WT, F55 WT, A73 F (protein, UniProt P02693 2-132, looked up, variant L72A A73F, acrylodan label, acrylodan-labeled rI-FABP-L72A mutein: M18 WT, G31 WT, F55 WT, A73 F) Fatty acid-binding protein, …: AFDGTWKVDRNENYEKFMEKMGINVVKRKLGAHDNLKLTITQEGNKFTVKESSNFRNIDVVFELGVDFAYSAFDGTELTGTWTMEGNKLVGKFKRVDNGKELIAVREISGNELIQTYTYEGVEAKRIFKKE | 1.1 | 0.6 | 1.2 | 1.8 | 1.1 | 2.4 | 0.4
L2P8F11: acrylodan-labeled rI-FABP-L72A mutein: M18 WT, G31 WT, F55 WT, A73 I (protein, UniProt P02693 2-132, looked up, variant L72A A73I, acrylodan label, acrylodan-labeled rI-FABP-L72A mutein: M18 WT, G31 WT, F55 WT, A73 I) Fatty acid-binding protein, …: AFDGTWKVDRNENYEKFMEKMGINVVKRKLGAHDNLKLTITQEGNKFTVKESSNFRNIDVVFELGVDFAYSAIDGTELTGTWTMEGNKLVGKFKRVDNGKELIAVREISGNELIQTYTYEGVEAKRIFKKE | 0.0 | 0.0 | 0.0 | 0.1 | 0.4 | 0.1 | 0.3
L1P7 H4: acrylodan-labeled rI-FABP mutein: Y14 I, L38 M, L72 W, Y117 wt (protein, UniProt P02693 2-132, looked up, variant Y14I L38M L72W, acrylodan label, acrylodan-labeled rI-FABP mutein: Y14 I, L38 M, L72 W, Y117 wt) Fatty acid-binding protein, …: AFDGTWKVDRNENIEKFMEKMGINVVKRKLGAHDNLKMTITQEGNKFTVKESSNFRNIDVVFELGVDFAYSWADGTELTGTWTMEGNKLVGKFKRVDNGKELIAVREISGNELIQTYTYEGVEAKRIFKKE | −0.6 | −1.4 | −1.3 | −1.1 | −1.0 | – | –
L1P12 E11: acrylodan-labeled rI-FABP mutein: Y14 L, L38 wt, L72 W, Y117 wt (protein, UniProt P02693 2-132, looked up, variant Y14L L72W, acrylodan label) Fatty acid-binding protein, …: AFDGTWKVDRNENLEKFMEKMGINVVKRKLGAHDNLKLTITQEGNKFTVKESSNFRNIDVVFELGVDFAYSWADGTELTGTWTMEGNKLVGKFKRVDNGKELIAVREISGNELIQTYTYEGVEAKRIFKKE | −0.1 | −1.0 | −0.7 | −0.7 | −0.5 | – | –
L2P1E6: acrylodan-labeled rI-FABP-L72A mutein: M18 L, G31 WT, F55 WT, A73 L (protein, UniProt P02693 2-132, looked up, variant M18L L72A A73L, acrylodan label) Fatty acid-binding protein, …: AFDGTWKVDRNENYEKFLEKMGINVVKRKLGAHDNLKLTITQEGNKFTVKESSNFRNIDVVFELGVDFAYSALDGTELTGTWTMEGNKLVGKFKRVDNGKELIAVREISGNELIQTYTYEGVEAKRIFKKE | 0.0 | 0.1 | 0.1 | 0.1 | 0.4 | 0.1 | 0.2
L1P8 H2: acrylodan-labeled rI-FABP mutein: Y14 M, L38 M, L72 W, Y117 wt (protein, UniProt P02693 2-132, looked up, variant Y14M L38M L72W, acrylodan label, acrylodan-labeled rI-FABP mutein: Y14 M, L38 M, L72 W, Y117 wt) Fatty acid-binding protein, …: AFDGTWKVDRNENMEKFMEKMGINVVKRKLGAHDNLKMTITQEGNKFTVKESSNFRNIDVVFELGVDFAYSWADGTELTGTWTMEGNKLVGKFKRVDNGKELIAVREISGNELIQTYTYEGVEAKRIFKKE | −0.6 | −1.7 | −1.5 | −1.3 | −1.3 | – | –
L1P17 A1: acrylodan-labeled rI-FABP mutein: Y14 I, L38 wt, L72 W, Y117 wt (protein, UniProt P02693 2-132, looked up, variant Y14I L72W, acrylodan label) Fatty acid-binding protein, …: AFDGTWKVDRNENIEKFMEKMGINVVKRKLGAHDNLKLTITQEGNKFTVKESSNFRNIDVVFELGVDFAYSWADGTELTGTWTMEGNKLVGKFKRVDNGKELIAVREISGNELIQTYTYEGVEAKRIFKKE | −0.4 | −1.2 | −1.0 | −0.9 | −0.8 | – | –
